Test results taken from FireProtDB.

Details: whole UniProt chain shown; for Tm / unfolding enthalpy (van 't Hoff) / unfolding enthalpy (calorimetric): Thermal
[1] = Homo sapiens, pH 7.4, 25 °C, Urea, CD, transition: 2, reversible: yes
[2] = Homo sapiens, pH 7.4, 25 °C, Urea, absorbance, transition: 2, reversible: yes
[3] = Homo sapiens, pH 7.4, 25 °C, Urea, fluorescence, transition: 2, reversible: yes
[4] = Hydrogenobacter thermophilus (strain DSM 6534 / IAM 12695 / TK-6), pH 7, CD, KH2PO4-NaOH 10 mM, reversible: yes
[5] = Halobacterium salinarum (strain ATCC 700922 / JCM 11081 / NRC-1), pH 6.5, DSC, None, reversible: no
[6] = Halobacterium salinarum (strain ATCC 700922 / JCM 11081 / NRC-1), pH 7, DSC, Potassium phosphate 3 mM, KCl 150 mM, reversible: no
[7] = Homo sapiens, pH 5.2, 20 °C, GdnHCl, CD, Sodium acetate 20 mM, reversible: yes

B1: Peroxiredoxin-6 wild type, P30041 (protein)
chain: MPGGLLLGDVAPNFEANTTVGRIRFHDFLGDSWGILFSHPRDFTPVCTTELGRAAKLAPEFAKRNVKLIALSIDSVEDHLAWSKDINAYNCEEPTEKLPFPIIDDRNRELAILLGMLDPAEKDEKGMPVTARVVFVFGPDKKLKLSILYPATTGRNFDEILRVVISLQLTAEKRVATPVDWKDGDSVMVLPTIPEEEAKKLFPKGVFTKELPSGKKYLRYTPQP
In the case of B1, the denaturant m value [1] is reported as 1.02 kcal/mol/M, the “denaturant midpoint (higher = more stable)” value (“denaturant midpoint” below) [1] is reported as 3.02 M and the unfolding free energy [1] is reported as 3.17 kcal/mol. The denaturant m value [2] was 1.03 kcal/mol/M, the “denaturant midpoint” value [2] was 2.71 M and the unfolding free energy [2] was 2.82 kcal/mol. For the same protein, the denaturant m value [3] was 1.04 kcal/mol/M, the “denaturant midpoint” value [3] was 2.74 M and the unfolding free energy [3] was 2.88 kcal/mol.

B2: Cytochrome c-552 wild type, P15452 (protein)
chain: MKKFLLVAVVGLAGITFANEQLAKQKGCMACHDLKAKKVGPAYADVAKKYAGRKDAVDYLAGKIKKGGSGVWGSVPMPPQNVTDAEAKQLAQWILSIK
For B2, the Tm [4] was 90 °C and the “unfolding enthalpy (van 't Hoff)” value [4] was 83.5 kcal/mol.

B3: Bacteriorhodopsin wild type, P02945 (protein)
chain: MLELLPTAVEGVSQAQITGRPEWIWLALGTALMGLGTLYFLVKGMGVSDPDAKKFYAITTLVPAIAFTMYLSMLLGYGLTMVPFGGEQNPIYWARYADWLFTTPLLLLDLALLVDADQGTILALVGADGIMIGTGLVGALTKVYSYRFVWWAISTAAMLYILYVLFFGFTSKAESMRPEVASTFKVLRNVTVVLWSAYPVVWLIGSEGAGIVPLNIETLLFMVLDVSAKVGFGLILLRSRAIFGEAEAPEPSAGDGAAATSD
For B3, the Tm [5] was 96 °C, the “unfolding enthalpy (calorimetric)” value [5] was 83.7 kcal/mol and the Tm [6] was 85 °C. The “unfolding enthalpy (calorimetric)” value [6] was 23 kcal/mol, the “unfolding enthalpy (van 't Hoff)” value [6] was 76 kcal/mol and the Tm (Halobacterium salinarum (strain ATCC 700922 / JCM 11081 / NRC-1), pH 7.5, DSC, phosphate 190 mM, reversible: no) was 95.1 °C. The Tm (Halobacterium salinarum (strain ATCC 700922 / JCM 11081 / NRC-1), pH 7.9, CD, glycylglycine 50 mM, NaCl 100 mM, reversible: no) was 79 °C and the Tm (Halobacterium salinarum (strain ATCC 700922 / JCM 11081 / NRC-1), pH 9.5, DSC, carbonate 50 mM, NaCl 100 mM, reversible: no) was 81 °C.

B4: Cytochrome b5 type B wild type, O43169 (protein)
chain: MSGSMATAEASGSDGKGQEVETSVTYYRLEEVAKRNSLKELWLVIHGRVYDVTRFLNEHPGGEEVLLEQAGVDASESFEDVGHSSDAREMLKQYYIGDIHPSDLKPESGSKDPSKNDTCKSCWAYWILPIIGAVLLGFLYRYYTSESKSS
In the case of B4, the “denaturant midpoint” value (Homo sapiens, pH 7, 25 °C, GdmSCN, UV/visible spectrophotometer, MOPS 30mM) is reported as 1.86 M and the Tm (Homo sapiens, pH 7, UV/visible spectrophotometer, Potassium phosphate 50mM) is reported as 85.7 °C.

B5: SNARE-associated protein Snapin wild type, O95295 (protein)
chain: MAGAGSAAVSGAGTPVAGPTGRDLFAEGLLEFLRPAVQQLDSHVHAVRESQVELREQIDNLATELCRINEDQKVALDLDPYVKKLLNARRRVVLVNNILQNAQERLRRLNHSVAKETARRRAMLDSGIYPPGSPGK
With B5 the Tm (Homo sapiens, pH 7.4, CD, Tris 50 mM) was 57.9 °C.

B6: Lysozyme C wild type, P61626 (protein)
chain: MKALIVLGLVLLSVTVQGKVFERCELARTLKRLGMDGYRGISLANWMCLAKWESGYNTRATNYNAGDRSTDYGIFQINSRYWCNDGKTPGAVNACHLSCSALLQDNIADAVACAKRVVRDPQGIRAWVAWRNRCQNRDVRQYVQGCGV
In the case of B6, the unfolding free energy (Homo sapiens, pH 3, 10 °C, GdnHCl, Fluorescence, glycine-HCl 40 mM, reversible: yes) is reported as 11.8 kcal/mol, the unfolding free energy (Homo sapiens, pH 4, 10 °C, GdnHCl, CD, glycine-HCl 40 mM, reversible: yes) is reported as 14 kcal/mol and the denaturant m value [7] is reported as 3.6 kcal/mol/M. The “denaturant midpoint” value [7] was 4.12 M and the unfolding free energy [7] was 14.7 kcal/mol.
